What was measured:
CST (CTC1-STN1-TEN1) [1] = molecular target: T1, CST (CTC1-STN1-TEN1) (Homo sapiens, UniProt Q2NKJ3;Q9H668;Q86WV5 1-1217;1-368;1-123); assay: smFRET; 2 nM protein; dwell time 14.32 ± 0.81 (s; assigned from figure text); EMSA: 25 mM Tris-HCl pH 8.0, 100 mM NaCl, 1 mM DTT; 0.1 nM DNA, 30 min RT (Kd(app): 0.01 nM DNA, 18 h, 4 °C). smFRET: 25 mM Tris-HCl pH 8.0, 150 mM NaCl, 1 mM D; settings: protein: recombinant; tags: FLAG-CTC1, FLAG-STN1, untagged TEN1; copies: 1;1;1; label: strand 1 3'-Cy3; strand 2 5'-Cy5 and 3'-biotin; 18 bp duplex, 3' overhang 18 nt
T1 sequence (Q2NKJ3 whole entry, chain 1 of 3): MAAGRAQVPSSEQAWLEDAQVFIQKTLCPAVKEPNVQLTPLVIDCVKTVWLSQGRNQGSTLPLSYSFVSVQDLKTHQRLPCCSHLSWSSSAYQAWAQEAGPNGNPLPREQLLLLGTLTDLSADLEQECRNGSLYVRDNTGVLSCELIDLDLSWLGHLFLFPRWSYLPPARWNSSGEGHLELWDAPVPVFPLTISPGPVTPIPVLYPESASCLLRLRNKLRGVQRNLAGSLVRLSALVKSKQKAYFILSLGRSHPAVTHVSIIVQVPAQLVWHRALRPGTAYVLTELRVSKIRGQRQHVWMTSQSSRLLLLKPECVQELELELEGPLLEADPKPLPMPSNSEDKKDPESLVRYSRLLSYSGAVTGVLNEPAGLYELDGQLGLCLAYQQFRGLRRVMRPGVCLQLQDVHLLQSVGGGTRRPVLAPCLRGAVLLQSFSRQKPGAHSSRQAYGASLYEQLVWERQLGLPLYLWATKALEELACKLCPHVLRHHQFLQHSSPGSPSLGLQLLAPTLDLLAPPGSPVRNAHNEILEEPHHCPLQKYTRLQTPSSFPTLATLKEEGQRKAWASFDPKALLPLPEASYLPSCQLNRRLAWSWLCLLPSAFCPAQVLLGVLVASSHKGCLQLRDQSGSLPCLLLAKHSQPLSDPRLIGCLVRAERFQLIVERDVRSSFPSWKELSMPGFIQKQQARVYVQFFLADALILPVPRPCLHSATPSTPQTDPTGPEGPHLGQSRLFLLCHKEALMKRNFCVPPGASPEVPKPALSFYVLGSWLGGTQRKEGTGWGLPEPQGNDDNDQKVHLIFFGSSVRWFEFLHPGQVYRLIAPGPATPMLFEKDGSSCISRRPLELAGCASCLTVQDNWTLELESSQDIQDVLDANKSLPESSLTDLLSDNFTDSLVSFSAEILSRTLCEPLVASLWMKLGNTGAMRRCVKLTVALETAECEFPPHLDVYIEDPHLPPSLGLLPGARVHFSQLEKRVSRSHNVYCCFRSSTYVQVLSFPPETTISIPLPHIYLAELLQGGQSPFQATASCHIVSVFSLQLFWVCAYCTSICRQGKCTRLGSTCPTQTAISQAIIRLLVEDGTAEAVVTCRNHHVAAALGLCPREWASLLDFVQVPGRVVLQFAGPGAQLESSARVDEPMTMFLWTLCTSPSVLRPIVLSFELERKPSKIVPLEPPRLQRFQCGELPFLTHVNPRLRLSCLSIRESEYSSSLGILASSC
T1 sequence (Q9H668 whole entry, chain 2 of 3): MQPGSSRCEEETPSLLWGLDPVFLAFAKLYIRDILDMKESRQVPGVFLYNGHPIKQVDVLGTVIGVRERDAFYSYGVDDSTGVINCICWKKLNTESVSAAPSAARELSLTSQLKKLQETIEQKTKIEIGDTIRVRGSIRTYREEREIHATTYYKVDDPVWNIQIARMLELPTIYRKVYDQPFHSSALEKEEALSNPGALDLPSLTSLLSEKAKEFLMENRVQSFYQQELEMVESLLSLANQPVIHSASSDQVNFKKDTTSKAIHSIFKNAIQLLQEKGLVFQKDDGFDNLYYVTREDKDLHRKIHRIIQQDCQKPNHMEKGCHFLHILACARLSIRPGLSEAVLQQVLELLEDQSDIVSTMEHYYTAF
T1 sequence (Q86WV5 whole entry, chain 3 of 3): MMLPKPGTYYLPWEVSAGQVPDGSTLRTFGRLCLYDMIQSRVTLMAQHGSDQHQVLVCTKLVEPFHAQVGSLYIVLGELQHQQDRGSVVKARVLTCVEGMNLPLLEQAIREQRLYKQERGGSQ

CS (CTC1-STN1) [2] = molecular target: T2, CS (CTC1-STN1) (Homo sapiens, UniProt Q2NKJ3;Q9H668 1-1217;1-368); assay: smFRET; 2 nM protein, imaged immediately; dwell time 8.22 ± 0.64 (s; assigned from figure text), 43% lower than CST; lost after flushing; EMSA: 25 mM Tris-HCl pH 8.0, 100 mM NaCl, 1 mM DTT; 0.1 nM DNA, 30 min RT (Kd(app): 0.01 nM DNA, 18 h, 4 °C). smFRET: 25 mM Tris-HCl pH 8.0, 150 mM NaCl, 1 mM D; settings: protein: recombinant; tags: FLAG-CTC1, FLAG-STN1; copies: 1;1; label: strand 1 3'-Cy3; strand 2 5'-Cy5 and 3'-biotin; 18 bp duplex, 3' overhang 18 nt
T2 sequence (Q2NKJ3 whole entry, chain 1 of 2): as the sequence (Q2NKJ3 whole entry, chain 1 of 3) above
T2 sequence (Q9H668 whole entry, chain 2 of 2): as the sequence (Q9H668 whole entry, chain 2 of 3) above

CS (CTC1-STN1) [3] = molecular target: T2, CS (CTC1-STN1); assay: EMSA; apparent Kd; EMSA: 25 mM Tris-HCl pH 8.0, 100 mM NaCl, 1 mM DTT; 0.1 nM DNA, 30 min RT (Kd(app): 0.01 nM DNA, 18 h, 4 °C). smFRET: 25 mM Tris-HCl pH 8.0, 150 mM NaCl, 1 mM D; settings: protein: recombinant; tags: FLAG-CTC1, FLAG-STN1; copies: 1;1; label: 32P
CST (CTC1-STN1-TEN1) [4] = molecular target: T1, CST (CTC1-STN1-TEN1); assay: as above; settings: protein: recombinant; tags: FLAG-CTC1, FLAG-STN1, untagged TEN1; copies: 1;1;1; label: 32P
CST (CTC1-STN1-TEN1) [5] = molecular target: T1, CST (CTC1-STN1-TEN1); assay: EMSA; EMSA: 25 mM Tris-HCl pH 8.0, 100 mM NaCl, 1 mM DTT; 0.1 nM DNA, 30 min RT (Kd(app): 0.01 nM DNA, 18 h, 4 °C). smFRET: 25 mM Tris-HCl pH 8.0, 150 mM NaCl, 1 mM D; settings: protein: recombinant; tags: FLAG-CTC1, FLAG-STN1, untagged TEN1; copies: 1;1;1; label: 32P; hairpin, 15 bp stem, T5 loop, 3' overhang 18 nt
CS (CTC1-STN1) [6] = molecular target: T2, CS (CTC1-STN1); assay: EMSA; about 5-fold less efficient than CST; EMSA: 25 mM Tris-HCl pH 8.0, 100 mM NaCl, 1 mM DTT; 0.1 nM DNA, 30 min RT (Kd(app): 0.01 nM DNA, 18 h, 4 °C). smFRET: 25 mM Tris-HCl pH 8.0, 150 mM NaCl, 1 mM D; settings: protein: recombinant; tags: FLAG-CTC1, FLAG-STN1; copies: 1;1; label: 32P; hairpin, 15 bp stem, T5 loop, 3' overhang 18 nt

B1: smFRET junction, 18 nt overhang (dsDNA)
DNA 1: TGGCGACGGCAGCGAGGCAGCGTATCCGTTCAGTTG
DNA 2: GCCTCGCTGCCGTCGCCA
CST (CTC1-STN1-TEN1) [1]
  binding result: binds
CS (CTC1-STN1) [2]
  binding result: binds

B2: Tel-36 (ssDNA)
DNA: GGTTAGGGTTAGGGTTAGGGTTAGGGTTAGGGTTAG
CS (CTC1-STN1) [3]
  Kd: 0.33 ± 0.08 nM
CST (CTC1-STN1-TEN1) [4]
  Kd: 0.02 ± 0.03 nM

B3: NonTel-48 (ssDNA)
DNA: AGCGTATCCGTTCAGTTGAGCGTATCCGTTCAGTTGAGCGTATCCGTT
CS (CTC1-STN1) [3]
  Kd: 0.08 ± 0.05 nM
CST (CTC1-STN1-TEN1) [4]
  Kd: 0.01 ± 0.005 nM

B4: NonTel fold-back 18 nt 3' overhang (structured_DNA)
DNA: ACGACTGCATCTAGCTTTTTGCTAGATGCAGTCGTAGCGTATCCGTTCAGTTG
CST (CTC1-STN1-TEN1) [5]
  binding result: binds
CS (CTC1-STN1) [6]
  binding result: binds

B5: Tel-18 (ssDNA)
DNA: GGTTAGGGTTAGGGTTAG
CS (CTC1-STN1) [3]
  Kd: 1.04 ± 0.46 nM
CST (CTC1-STN1-TEN1) [4]
  Kd: 0.21 ± 0.07 nM
